Measured values as given in the supplement of paper PMC9170038.

Tested on: MS2 coat protein
Assay: apparent KD of MS2 coat protein; higher = weaker reporter binding
Conditions: Eterna round: R107
Outline: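 Apparent KD per design is the median of normalised cluster binding-curve fits. Designed RNA switches transcribed on-chip from Illumina sequencing clusters were titrated with SNAP-549-labelled MS2 coat protein in twofold steps from 0.7 or 1.5 nM to 3 µM, with 0.8–1.5 h down to 10–20 min per step. Buffer: 100 mM Tris-HCl pH 7.5, 80 mM KCl, 4 mM MgCl2, without or with constant ligand.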

[1] = input ligand: theophylline 20 uM
[2] = input ligand: theophylline 2 mM
[3] = input ligand: tryptophan 2.4 mM

Row | Sequence | apparent KD of MS2 coat protein (input ligand: arginine 13.2 mM) [nM] | apparent KD of MS2 coat protein [1] [nM] | apparent KD of MS2 coat protein [2] [nM] | apparent KD of MS2 coat protein [3] [nM] | apparent KD of MS2 coat protein (input ligand: none) [nM]
1 | GGCGCUGCGUCGGCCGCCACUAGUGGGUAAUGGGUGUACAUGAGGAUCACCCAUGUAUUUUGGCCUAGGACCGGGACGUGGCGCC [Oxen] | 81.9 | 455 | 570 |  | 
2 | AUGUCGUUGAAUAUAGCGGCUUGGAGUGAUACCAGAAUGAUCUAAUUCCCUUGGCAGCAUUACAUGAGGAUCACCCAUGUUCCAG [SSTheo A #22] | 27.8 | 57.4 |  | 55.5 | 
3 | CGAAUACCAAUUGAUACCAGCAUGUUAACAUGAGGAUCACCCAUGUUAAGGAUAACAUAAUGCCCUUGGCAGCAACGUAAAUUCG [Aa] | 19.2 | 22.9 |  | 19.6 | 
4 | AAGGACAUGAGGAUCACCCAUGUAGAGGAGCGAGGACCGGUACGGCCGCCACUCGGUGACAUUCGAUAAUGCCGAAUAAGACAUC [theeternabot_sameState_MS2_Trp_A_47] | 26.8 | 33.2 | 24.6 |  | 
5 | UUUAUAUAGACGGCCGCCACUGGAAUUAAUACAUGAGGAUCACCCAUGUAUAGAGAAUAAUAAUACAGGACCGGGUCUUCAUGAU [SS Tryp B Tesla 1.1] | 28.3 | 34.2 | 33.7 |  | 
6 | AAAAUCCUACCUGAGGAUCACCCUGGUGAAGGAGCGCCCGAAAGGGCAGGUAGGUCGCACCUGAGGAUCACCCGGGUAACCUAAA [ArgEX 14 #DoubleMS2 #OpenEnded #AlternativeMS2] | 78.7 | 139 | 200 | 151 | 170
7 | AAACGUUGCUGCGAUACCAGACAUGAGGAUCACCCAUGUACCAAGGUACGAAAAUAACAUGUCCCUUGGCAGCGCAGCAACGAAA [MAT - Exclusion Theophlline B - Mod of Eli - D6] | 15.7 | 29.7 |  | 14.5 | 
8 | AAUAACAUGAGGAUCACCCAUGUAAAAGAUACCAGAUGCAUGAUGAUCCCUUGGCAGCUUAAAACGCGAUUGGAAACAAUCGCGA [Mat - Same State Theophlline A - Mod of Eli - D13] | 46.1 | 93.4 |  | 30.8 | 
9 | CGACUGUAAAGUCGACCGGUCAUCAAUAAUCGAGGACCGGUACGGCCGCCACUCGAUGUGAUUUCACAUGAGGAUCACCCAUGUA [Tryptophan A 17] | 24.1 | 26.3 | 29.1 |  | 
10 | UGUAUGUGAUCUGAUACCAGUCCAACUGGUAAAUCAUGAGGAUCACCCAUGGAAAAUUGGGACCCUUGGCAGCAGAUCGCAUACU | 94.1 | 490 | 38.1 | 1070 | 452
11 | AAAUGUGUAAAAGCUUUAACACCCUGAGAAGGAGCGCAAUAAAUUGCAGGUAGGUCGCUCAGACAUGAGGAUCACCCAUGUAACC [Atrabeor] | 45.7 | 56.9 | 59.7 | 40 | 39.6
12 | AACCGAGGCUAUCCACAAAGAAAAUGUGAUACCAGAAUAAUUUUAUUCCCUUGGCAGCAUGACAUGAGGAUCACCCAUGUGUCUU [SSTheo A #5] | 29.7 | 39.8 |  | 32.8 | 
13 | GCGGACAUGAGGAUCACCCAUGUAAAUCCUCGAGGACCGGUACGGCCGCCACUCGAACGAGUGGCGCGCGAGCGCGCGCUCGCGC [aBa] | 39.4 | 60.3 | 36.4 | 45.7 | 30.2
14 | UUGCCCAGUACGGCCGCCACUGUGUGCAGGGAGCCCAGGUCCACAUGAGGAUCACCCAUGUACAACAGGACCGGGUACUUGCAAU [Usdizaqu] | 7.54 | 12.7 | 11.8 |  | 
15 | GCACCAGGUACGGAUACCAGCUGCCAUAGUUACAUGAGGAUCACCCAUGUGAUCUAUUGUAGCCCUUGGCAGCUGUACCUGGUGC [SSThB NP+V+V2 #5 Same Structure] | 71.2 | 398 |  | 46.8 | 
16 | UUUUUUAUCAUGGCGUAUCGGAAAACCGAUACCAGUACAGAAAUGUACCCUUGGCAGCGGCGUUUUACAUGAGGAUCACCCAUGU [Ex Theophylline A 4] | 15.1 | 23.7 |  | 14.9 | 
17 | CGAGUAAGAACAAUCGAAUAACGGUUUUCGCGAGGACCGGUACGGCCGCCACUCGUGUGAUAUCACACAUGAGGAUCACCCAUGU [3'end-1] | 61.3 | 96.7 | 101 |  | 
18 | AUGCUUGUCAGAAGGAGCGUCUUUAACAUGAGGAUCACCCAUGUAUCAUGGAAUUUGAUGAGACAGGUAGGUCGCUGAAUAGUAA [JR_SSArginiB_Sub021] | 30 | 42.7 | 34.5 | 25.7 | 29.8
19 | GAUCCUCAUACGGAUACCAGCGAAUAACAUGAGGAUCACCCAUGUAAUAAAGAAAAUAAAUGCCCUUGGCAGCCGAAUAGAUAGU [Same State Theophylline B GF 1] | 36.2 | 137 |  | 91.1 | 
20 | GCUAGGUCUACGGCCGCCACUAGACGUGGGUAAGACAUGAGGAUCACCCAUGUACUACAGGCGCAUAGGACCGGGUAGACCUAGC [SSTB NP+V+V2 #11 Same Structure] | 49.6 | 74.5 | 82.6 | 13.2 | 78.9
21 | AACAUGAGGAUCACCCAUGUUGUAAGGGAAGGAGCGCCUAAUCAGGCAGGUAGGUCGCCCAACAUGAGGAUCACCCAUGUUGUAU [Exclusion Arginine A 2] | 38.9 | 89.2 | 66.9 | 76.5 | 75.3
22 | GUACAUGAGGAUCACCCAUGUAUAGUUGAAGGAGCGACCAGAGGGUCAGGUAGGUCGCAGCACAUGGCGUAAACCCGUGUAUGCC [#1 Exclusion - Arginine A Attempt #23 (Inspired by Pi)] | 20.4 | 27.9 | 24.9 | 21.2 | 21
23 | AUCGUACCUCAUGAUACCAGCAUGUGAUCAUAACAUGAGGAUCACCCAUGUAAUCAGUGAUGCCCUUGGCAGCGUAGUCGAUACA [Same State - Theophylline B (Freestyle 8)] | 76.3 | 161 |  | 123 | 
24 | CACAUGAGGAUCACCCAUGUCUGAACUGAAGGAGCGCUAAAUAAGGCAGGUAGGUCGCGGAAUCUUGUGUGCAUAUGCACACGGG [9.T] | 18.2 | 28.5 | 31.2 | 25 | 20.5
25 | CGAUAUAAGACGGCCGCCACUAUUAAGUAACAAAAUAAACAUGAGGAUCACCCAUGUACAUGGGAUAGGACCGGGUCCAAUAACG [A1] | 48.3 | 163 | 166 |  | 
26 | GUGUUUGUGUGAGAUACCAGUGAGGCCACAUGAGGAUCACCCAUGUCCCUCACUCCGGCCCACCCUUGGCAGCUCUUAUAGUAGU [Exclusion Theophylline B GF 23] | 9.34 | 13.3 |  | 9.83 | 
27 | UCGCCCAGAAAGGAUUGCUGGGAUAUGGAAGGAGCGCUGAUGCCAGCAGGUAGGUCGCCAACGGACAUGAGGAUCACCCAUGUAC [Same State - Arginine A (Freestyle 6)] | 16.7 | 28.7 | 21.1 | 20.9 | 19.8
28 | ACGUAGAAGUCGGCCGCCACUGAUUUCAUGUUCAACAUGAGGAUCACCCAUGUACCUUAUGUUAACAGGACCGGGACGUAUACGA [JR_SSTryptoB_Sub001] | 228 | 303 | 442 |  | 
29 | UUAUUUAACGGAAGGAGCGCGGAAUAAUAAGUGGGUAAACAUGAGGAUCACCCAUGUAAACCGCAGGUAGGUCGCCGAUAUUUAU [AstrosEXyARgB#3] | 66.2 | 88.9 | 98.1 | 74.7 | 79.3
